Earlier results, collected in publication PMC2948943.

Target: UmuD (Escherichia coli) (UniProt P0AG11)

Chain of UmuD (P0AG11 25-139): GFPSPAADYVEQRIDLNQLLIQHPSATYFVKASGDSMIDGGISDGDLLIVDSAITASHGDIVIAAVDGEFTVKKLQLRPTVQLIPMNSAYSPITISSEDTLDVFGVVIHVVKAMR

Substance: UmuD (from UniProt P0AG11)
- Kd: < 0.01 nM
